Experimental data published in patent publication US20140274797.

Test system: specific peptide sequence that is a substrate for MMP-9 (Lys-Gly-Pro-Arg-Ser-Leu-Ser-Gly-Lys)

Question: metalloproteinase-9 (MMP-9) was tested. Which “cleavage of the donor/acceptor-labelled peptide (loss of FRET, colour change)” value did it give?
Answer: Addition of MMP-9 cleaves the peptide separating donor and acceptor
